Test results published in the Immune Epitope Database (IEDB).

Columns and labels:
Experiment in all cases: IEDB peptide-MHC binding, purified MHC/competitive/radioactivity; filed as Kd, often an IC50 or EC50 that approximates it; ≥ and ≤ were set here for values at or beyond the usual limits of such assays
HLA-A*02:06 = target: HLA-A*02:06
HLA-A*02:03 = target: HLA-A*02:03
HLA-A*02:02 = target: HLA-A*02:02
HLA-A*11:01 = target: HLA-A*11:01
HLA-A*68:01 = target: HLA-A*68:01
HLA-A*33:01 = target: HLA-A*33:01
HLA-A*31:01 = target: HLA-A*31:01
HLA-A*03:01 = target: HLA-A*03:01
[1] = source organism: Vaccinia virus WR
[2] = source organism: Mammarenavirus brazilense
[3] = source organism: SARS coronavirus Tor2
[4] = source organism: Lymphocytic choriomeningitis virus (strain Armstrong)
[5] = source organism: Mammarenavirus guanaritoense
[6] = source organism: Mammarenavirus juninense
[7] = source organism: Dengue virus 1 Brazil/97-11/1997
[8] = source organism: Triticum aestivum

SITPNNLNKI
Kd (HLA-A*02:06; [1]): ≥ 69.8 µM | Kd (HLA-A*02:03; [1]): ≥ 70.4 µM | Kd (HLA-A*02:02; [1]): 14.9 µM

SLVSAGSGKV
Kd (HLA-A*02:03; source organism: Dengue virus 3 Martinique/1243/1999): 0.0194 µM

SNPNLFWAV
Kd (HLA-A*02:06; [2]): 0.0346 µM | Kd (HLA-A*02:03; [2]): 6.15 µM | Kd (HLA-A*02:02; [2]): 0.17 µM

STDVNKQNK
Kd (HLA-A*11:01; [1]): 0.0119 µM | Kd (HLA-A*68:01; [1]): 0.29 µM | Kd (HLA-A*33:01; [1]): ≥ 77.7 µM | Kd (HLA-A*31:01; [1]): 1.18 µM | Kd (HLA-A*03:01; [1]): 8.97 µM

STGNYNYKYR
Kd (HLA-A*11:01; [3]): 1.38 µM | Kd (HLA-A*68:01; [3]): 0.244 µM | Kd (HLA-A*33:01; [3]): 1.09 µM | Kd (HLA-A*31:01; [3]): 0.0347 µM | Kd (HLA-A*03:01; [3]): 2.76 µM

STLLTWHMH
Kd (HLA-A*11:01; [4]): 0.258 µM | Kd (HLA-A*68:01; [4]): 2.72 µM | Kd (HLA-A*33:01; [4]): ≥ 77.7 µM | Kd (HLA-A*31:01; [4]): 4.49 µM | Kd (HLA-A*03:01; [4]): ≥ 38.2 µM

STSNVITDQT
Kd (HLA-A*02:06; [1]): 10.8 µM | Kd (HLA-A*02:03; [1]): ≥ 70.4 µM | Kd (HLA-A*02:02; [1]): ≥ 53.6 µM

TCITSMAER
Kd (HLA-A*11:01; [5]): 17.4 µM | Kd (HLA-A*68:01; [5]): 0.243 µM | Kd (HLA-A*33:01; [5]): 2.63 µM | Kd (HLA-A*31:01; [5]): 0.559 µM | Kd (HLA-A*03:01; [5]): ≥ 67 µM

TGINENYAK
Kd (HLA-A*11:01; [6]): 1.53 µM | Kd (HLA-A*68:01; [6]): 0.998 µM | Kd (HLA-A*33:01; [6]): ≥ 77.7 µM | Kd (HLA-A*31:01; [6]): ≥ 53.4 µM | Kd (HLA-A*03:01; [6]): ≥ 78 µM

TLATGPLTTL
Kd (HLA-A*02:03; [7]): 0.00926 µM

TLDTMDDMK
Kd (HLA-A*11:01; [1]): 0.466 µM | Kd (HLA-A*68:01; [1]): 0.373 µM | Kd (HLA-A*33:01; [1]): ≥ 77.7 µM | Kd (HLA-A*31:01; [1]): ≥ 77.9 µM | Kd (HLA-A*03:01; [1]): 11.8 µM

TLILAPTRVV
Kd (HLA-A*02:03; source organism: Dengue virus 2 Jamaica/1409/1983): 0.0426 µM

TLNEYKQLY
Kd (HLA-A*11:01; [1]): 0.124 µM | Kd (HLA-A*68:01; [1]): 1.36 µM | Kd (HLA-A*33:01; [1]): 7 µM | Kd (HLA-A*31:01; [1]): 1.35 µM | Kd (HLA-A*03:01; [1]): 0.0567 µM

TMKAIEKDR
Kd (HLA-A*11:01; [1]): 2.62 µM | Kd (HLA-A*68:01; [1]): 0.511 µM | Kd (HLA-A*33:01; [1]): 0.675 µM | Kd (HLA-A*31:01; [1]): 0.227 µM | Kd (HLA-A*03:01; [1]): ≥ 25.9 µM

TSLAIKNYYR
Kd (HLA-A*11:01; [1]): 0.000933 µM | Kd (HLA-A*68:01; [1]): 0.0058 µM | Kd (HLA-A*33:01; [1]): 0.258 µM | Kd (HLA-A*31:01; [1]): 0.46 µM | Kd (HLA-A*03:01; [1]): 0.118 µM

TTAFFNTCK
Kd (HLA-A*11:01; [1]): 0.000492 µM | Kd (HLA-A*68:01; [1]): 0.000947 µM | Kd (HLA-A*33:01; [1]): 0.997 µM | Kd (HLA-A*31:01; [1]): 0.226 µM | Kd (HLA-A*03:01; [1]): 0.0462 µM

VFYRSGTETK
Kd (HLA-A*11:01; [1]): ≥ 34.1 µM | Kd (HLA-A*68:01; [1]): ≥ 20.4 µM | Kd (HLA-A*33:01; [1]): 6.53 µM | Kd (HLA-A*31:01; [1]): 8.28 µM | Kd (HLA-A*03:01; [1]): ≥ 33.8 µM

VLCVKKFYK
Kd (HLA-A*11:01; [1]): 0.00882 µM | Kd (HLA-A*68:01; [1]): 0.344 µM | Kd (HLA-A*33:01; [1]): 0.162 µM | Kd (HLA-A*31:01; [1]): 0.00132 µM | Kd (HLA-A*03:01; [1]): 0.0252 µM

VLGLGLSLK
Kd (HLA-A*11:01; [1]): 0.0257 µM | Kd (HLA-A*68:01; [1]): 9.65 µM | Kd (HLA-A*33:01; [1]): ≥ 26.8 µM | Kd (HLA-A*31:01; [1]): 1.57 µM | Kd (HLA-A*03:01; [1]): 0.00673 µM

VMCGGSLYVK
Kd (HLA-A*11:01; [3]): 0.0466 µM | Kd (HLA-A*68:01; [3]): 8.48 µM | Kd (HLA-A*33:01; [3]): 16.3 µM | Kd (HLA-A*31:01; [3]): 0.648 µM | Kd (HLA-A*03:01; [3]): 0.0584 µM

VTSLAIKNY
Kd (HLA-A*11:01; [1]): 0.322 µM | Kd (HLA-A*68:01; [1]): 12.5 µM | Kd (HLA-A*33:01; [1]): ≥ 77.7 µM | Kd (HLA-A*31:01; [1]): ≥ 34.8 µM | Kd (HLA-A*03:01; [1]): ≥ 25.1 µM

VVLQQHNIVH
Kd (HLA-A*11:01; [8]): 4.63 µM | Kd (HLA-A*68:01; [8]): ≥ 29.6 µM | Kd (HLA-A*33:01; [8]): ≥ 28.3 µM | Kd (HLA-A*31:01; [8]): 5.2 µM | Kd (HLA-A*03:01; [8]): 2.02 µM

VVRDFENYVK
Kd (HLA-A*11:01; [1]): 0.0307 µM | Kd (HLA-A*68:01; [1]): 0.0713 µM | Kd (HLA-A*33:01; [1]): 8.05 µM | Kd (HLA-A*31:01; [1]): 0.269 µM | Kd (HLA-A*03:01; [1]): 0.0249 µM

YFISIYSRPK
Kd (HLA-A*11:01; [1]): 0.853 µM | Kd (HLA-A*68:01; [1]): 0.0252 µM | Kd (HLA-A*33:01; [1]): 0.107 µM | Kd (HLA-A*31:01; [1]): 0.112 µM | Kd (HLA-A*03:01; [1]): 0.22 µM

YIIRRSGCR
Kd (HLA-A*11:01; [1]): 0.566 µM | Kd (HLA-A*68:01; [1]): 0.0641 µM | Kd (HLA-A*33:01; [1]): 0.192 µM | Kd (HLA-A*31:01; [1]): 0.0293 µM | Kd (HLA-A*03:01; [1]): 10.5 µM

YIWIKNLETY
Kd (HLA-A*11:01; [1]): 3.44 µM | Kd (HLA-A*68:01; [1]): 0.161 µM | Kd (HLA-A*33:01; [1]): 4.48 µM | Kd (HLA-A*31:01; [1]): 1.74 µM | Kd (HLA-A*03:01; [1]): 1.46 µM

YLALYNKYK
Kd (HLA-A*11:01; [3]): 1.32 µM | Kd (HLA-A*68:01; [3]): 0.913 µM | Kd (HLA-A*33:01; [3]): 7.98 µM | Kd (HLA-A*31:01; [3]): 0.941 µM | Kd (HLA-A*03:01; [3]): 0.201 µM

YQVKTETTI
Kd (HLA-A*02:06; source organism: Dengue virus 4 Philippines/H241/1956): 0.0263 µM

YSYATHHDK
Kd (HLA-A*11:01; [3]): 0.0305 µM | Kd (HLA-A*68:01; [3]): 0.0163 µM | Kd (HLA-A*33:01; [3]): ≥ 26.2 µM | Kd (HLA-A*31:01; [3]): 3.47 µM | Kd (HLA-A*03:01; [3]): 0.0164 µM

YTLFQQTGR
Kd (HLA-A*11:01; [1]): 0.551 µM | Kd (HLA-A*68:01; [1]): 0.000384 µM | Kd (HLA-A*33:01; [1]): 0.0241 µM | Kd (HLA-A*31:01; [1]): 0.05 µM | Kd (HLA-A*03:01; [1]): 3.1 µM

YVMCTGSFKL
Kd (HLA-A*02:06; [7]): 0.0188 µM

YVVTTDISEM
Kd (HLA-A*02:06; [7]): 1.16 µM
